Positions of bridges follow the written chain, without caps; N, C: chain ends. Non-standard residues stand in square brackets, D forms with d. Groups on a side chain read outwards from the residue. Primed or numbered codes have the meaning given here. *: point of attachment. X2 = (2-(2-(16-(tetrazol-5-yl)hexadecanoylamino)ethoxy)ethoxy)acetyl, O=C(CCCCCCCCCCCCCCCc1nn[nH]n1)NCCOCCOCC(=O)*; X5 = NH(2-(2-(2-(17-carboxyheptadecanoylamino)ethoxy)ethoxy)ethyl), O=C(O)CCCCCCCCCCCCCCCCC(=O)NCCOCCOCCN*; biscarboxymethyl = Lys(biscarboxymethyl) = Nepsilon-bis(carboxymethyl)-L-lysine; bis(carboxymethyl) = Lys(biscarboxymethyl) = N6-bis(carboxymethyl)-L-lysine; Palmitoyl(16-(5-tetrazolyl)) = O=C(CCCCCCCCCCCCCCCc1nnn[nH]1)*; biscarboxymethyl(3) = Nepsilon-bis(carboxymethyl) on Lys; Lys(CH2CO2H)2 = N[C@@H](CCCCN(CC(=O)O)CC(=O)O)C(=O)O; C17 diacid = O=C(O)CCCCCCCCCCCCCCCC(=O)*; C16 diacid = O=C(O)CCCCCCCCCCCCCCC(=O)*; Hyp = O=C(O)[C@@H]1C[C@@H](O)CN1; NTA = O=C(O)CN(CC(=O)O)CC(=O)*; hCys = N[C@@H](CCS)C(=O)O; Orn = NCCC[C@H](N)C(=O)O; Dab = NCC[C@H](N)C(=O)O; Dap = NC[C@H](N)C(=O)O; AEEA = NCCOCCOCC(=O)O
B1: Ac-c[homoCys-Gln-D-Phe-Arg-Trp-Cys]-Pro-Pro-Lys-Asp-Dap(BCMA)-Lys[(2-{2-[16-(tetrazol-5-yl)hexadecanoylamino]ethoxy}ethoxy)acetyl]-NH2 (peptide)
peptide: Ac-[hCys]Q[dF]RWCPPKD[Dap](NTA)K([AEEA-Palmitoyl(16-(5-tetrazolyl))])-NH2
modifications: disulfide 1-6
SMILES: CC(=O)N[C@H]1CCSSC[C@@H](C(=O)N2CCC[C@H]2C(=O)N2CCC[C@H]2C(=O)N[C@@H](CCCCN)C(=O)N[C@@H](CC(=O)O)C(=O)N[C@@H](CNC(=O)CN(CC(=O)O)CC(=O)O)C(=O)N[C@@H](CCCCNC(=O)COCCOCCNC(=O)CCCCCCCCCCCCCCCc2nnn[nH]2)C(N)=O)NC(=O)[C@H](Cc2c[nH]c3ccccc23)NC(=O)[C@H](CCCNC(=N)N)NC(=O)[C@@H](Cc2ccccc2)NC(=O)[C@H](CCC(N)=O)NC1=O
B2: Ac-c[homoCys-Hyp-D-Phe-Arg-Trp-Cys]-Pro-Pro-Lys-Asp-Dap(BCMA)-Lys[(2-{2-[16-(tetrazol-5-yl)hexadecanoylamino]ethoxy}ethoxy)acetyl]-NH2 (peptide)
peptide: Ac-[hCys][Hyp][dF]RWCPPKD[Dap](NTA)K([AEEA-Palmitoyl(16-(5-tetrazolyl))])-NH2
modifications: disulfide 1-6
SMILES: CC(=O)N[C@H]1CCSSC[C@@H](C(=O)N2CCC[C@H]2C(=O)N2CCC[C@H]2C(=O)N[C@@H](CCCCN)C(=O)N[C@@H](CC(=O)O)C(=O)N[C@@H](CNC(=O)CN(CC(=O)O)CC(=O)O)C(=O)N[C@@H](CCCCNC(=O)COCCOCCNC(=O)CCCCCCCCCCCCCCCc2nnn[nH]2)C(N)=O)NC(=O)[C@H](Cc2c[nH]c3ccccc23)NC(=O)[C@H](CCCNC(=N)N)NC(=O)[C@@H](Cc2ccccc2)NC(=O)[C@@H]2C[C@@H](O)CN2C1=O
B3: Ac-c[Cys-Glu-His-D-Phe-Arg-Trp-Cys]-Pro-Pro-Lys-Glu-Lys(biscarboxymethyl)-Lys[(2-{2-[16-(tetrazol-5-yl)hexadecanoylamino]ethoxy}ethoxy)acetyl]-NH2 (peptide)
peptide: Ac-CEH[dF]RWCPPKE[Lys(CH2CO2H)2]K([AEEA-Palmitoyl(16-(5-tetrazolyl))])-NH2
modifications: disulfide 1-7
SMILES: CC(=O)N[C@H]1CSSC[C@@H](C(=O)N2CCC[C@H]2C(=O)N2CCC[C@H]2C(=O)N[C@@H](CCCCN)C(=O)N[C@@H](CCC(=O)O)C(=O)N[C@@H](CCCCN(CC(=O)O)CC(=O)O)C(=O)N[C@@H](CCCCNC(=O)COCCOCCNC(=O)CCCCCCCCCCCCCCCc2nnn[nH]2)C(N)=O)NC(=O)[C@H](Cc2c[nH]c3ccccc23)NC(=O)[C@H](CCCNC(=N)N)NC(=O)[C@@H](Cc2ccccc2)NC(=O)[C@H](Cc2c[nH]cn2)NC(=O)[C@H](CCC(=O)O)NC1=O
B4: Ac-c[Lys-His-D-Phe-Arg-Trp-Asp]-Pro-Ser-Ser-Ser-Lys(biscarboxymethyl)-Ser-Ser-NH(2-{2-[2-(17-carboxyheptadecanoylamino)ethoxy]ethoxy}ethyl) (peptide)
peptide: Ac-KH[dF]RWDPSSS[Lys(CH2CO2H)2]SS-X5
modifications: lactam 1-6
SMILES: CC(=O)N[C@H]1CCCCNC(=O)C[C@@H](C(=O)N2CCC[C@H]2C(=O)N[C@@H](CO)C(=O)N[C@@H](CO)C(=O)N[C@@H](CO)C(=O)N[C@@H](CCCCN(CC(=O)O)CC(=O)O)C(=O)N[C@@H](CO)C(=O)N[C@@H](CO)C(=O)NCCOCCOCCNC(=O)CCCCCCCCCCCCCCCCC(=O)O)NC(=O)[C@H](Cc2c[nH]c3ccccc23)NC(=O)[C@H](CCCNC(=N)N)NC(=O)[C@@H](Cc2ccccc2)NC(=O)[C@H](Cc2c[nH]cn2)NC1=O
B5: Ac-c[Lys-His-D-Phe-Arg-Trp-Asp]-Pro-Pro-His-Glu-Glu-Ser-Ser-Glu-Lys({2-[2-(16-carboxyhexadecanoylamino)ethoxy]ethoxy}acetyl)-NH2 (peptide)
peptide: Ac-KH[dF]RWDPPHEESSEK([AEEA-C17 diacid])-NH2
modifications: lactam 1-6
SMILES: CC(=O)N[C@H]1CCCCNC(=O)C[C@@H](C(=O)N2CCC[C@H]2C(=O)N2CCC[C@H]2C(=O)N[C@@H](Cc2c[nH]cn2)C(=O)N[C@@H](CCC(=O)O)C(=O)N[C@@H](CCC(=O)O)C(=O)N[C@@H](CO)C(=O)N[C@@H](CO)C(=O)N[C@@H](CCC(=O)O)C(=O)N[C@@H](CCCCNC(=O)COCCOCCNC(=O)CCCCCCCCCCCCCCCC(=O)O)C(N)=O)NC(=O)[C@H](Cc2c[nH]c3ccccc23)NC(=O)[C@H](CCCNC(=N)N)NC(=O)[C@@H](Cc2ccccc2)NC(=O)[C@H](Cc2c[nH]cn2)NC1=O
B6: Ac-c[Orn-His-D-Phe-Arg-Trp-Glu]-Pro-Ser-Ser-Ser-Lys(biscarboxymethyl)-Ser-Ser-Lys({2-[2-(16-carboxyhexadecanoylamino)ethoxy]ethoxy}acetyl)-NH2 (peptide)
peptide: Ac-[Orn]H[dF]RWEPSSSK(bis(carboxymethyl))SSK([AEEA-C17 diacid])-NH2
modifications: lactam 1-6
B7: Ac-c[homoCys-His-D-Phe-Arg-Trp-Cys]-Pro-Pro-Lys-Glu-Lys(biscarboxymethyl)-Lys({2-[2-(15-carboxypentadecanoylamino)ethoxy]ethoxy}acetyl)-NH2 (peptide)
peptide: Ac-[hCys]H[dF]RWCPPKEK(bis(carboxymethyl))K([AEEA-C16 diacid])-NH2
modifications: disulfide 1-6
B8: Ac-c[homoCys-His-D-Phe-Arg-Trp-Cys]-Pro-Pro-Ser-Glu-Lys(biscarboxymethyl)-Lys({2-[2-(15-carboxypentadecanoylamino)ethoxy]ethoxy}acetyl)-NH2 (peptide)
peptide: Ac-[hCys]H[dF]RWCPPSEK(bis(carboxymethyl))K([AEEA-C16 diacid])-NH2
modifications: disulfide 1-6
B9: Ac-c[homoCys-His-D-Phe-Arg-Trp-Cys]-Pro-Pro-Lys-Asp-Lys(BCMA)-Lys[(2-{2-[16-(tetrazol-5-yl)hexadecanoylamino]ethoxy}ethoxy)acetyl]-NH2 (peptide)
peptide: Ac-[hCys]H[dF]RWCPPKDK(NTA)K([AEEA-Palmitoyl(16-(5-tetrazolyl))])-NH2
modifications: disulfide 1-6
SMILES: CC(=O)N[C@H]1CCSSC[C@@H](C(=O)N2CCC[C@H]2C(=O)N2CCC[C@H]2C(=O)N[C@@H](CCCCN)C(=O)N[C@@H](CC(=O)O)C(=O)N[C@@H](CCCCNC(=O)CN(CC(=O)O)CC(=O)O)C(=O)N[C@@H](CCCCNC(=O)COCCOCCNC(=O)CCCCCCCCCCCCCCCc2nnn[nH]2)C(N)=O)NC(=O)[C@H](Cc2c[nH]c3ccccc23)NC(=O)[C@H](CCCNC(=N)N)NC(=O)[C@@H](Cc2ccccc2)NC(=O)[C@H](Cc2c[nH]cn2)NC1=O
B10: Ac-c[Cys-Glu-His-D-Phe-Arg-Trp-Gly-Cys]-Pro-Pro-Lys-Glu-Lys(biscarboxymethyl)-Lys({2-[2-(15-carboxypentadecanoylamino)ethoxy]ethoxy}acetyl)-NH2 (peptide)
peptide: Ac-CEH[dF]RWGCPPKE[Lys(CH2CO2H)2]K([AEEA-C16 diacid])-NH2
modifications: disulfide 1-8
SMILES: CC(=O)N[C@H]1CSSC[C@@H](C(=O)N2CCC[C@H]2C(=O)N2CCC[C@H]2C(=O)N[C@@H](CCCCN)C(=O)N[C@@H](CCC(=O)O)C(=O)N[C@@H](CCCCN(CC(=O)O)CC(=O)O)C(=O)N[C@@H](CCCCNC(=O)COCCOCCNC(=O)CCCCCCCCCCCCCCC(=O)O)C(N)=O)NC(=O)CNC(=O)[C@H](Cc2c[nH]c3ccccc23)NC(=O)[C@H](CCCNC(=N)N)NC(=O)[C@@H](Cc2ccccc2)NC(=O)[C@H](Cc2c[nH]cn2)NC(=O)[C@H](CCC(=O)O)NC1=O
B11: Ac-c[Dab-His-D-Phe-Arg-Trp-Asp]-Pro-Pro-Arg-Glu-Lys(biscarboxymethyl)-Lys[(2-{2-[16-(tetrazol-5-yl)hexadecanoylamino]ethoxy}ethoxy)acetyl]-NH2 (peptide)
peptide: Ac-[Dab]H[dF]RWDPPREK(biscarboxymethyl(3))K([AEEA-Palmitoyl(16-(5-tetrazolyl))])-NH2
modifications: lactam 1-6
B12: Ac-c[Dab-His-D-Phe-Arg-Trp-Glu]-Pro-Pro-Arg-Asp-Lys(biscarboxymethyl)-Lys[(2-{2-[16-(tetrazol-5-yl)hexadecanoylamino]ethoxy}ethoxy)acetyl]-NH2 (peptide)
peptide: Ac-[Dab]H[dF]RWEPPRDK(biscarboxymethyl(3))K([AEEA-Palmitoyl(16-(5-tetrazolyl))])-NH2
modifications: lactam 1-6
B13: Ac-c[Dab-His-D-Phe-Arg-Trp-Asp]-Pro-Pro-His-Glu-Lys(biscarboxymethyl)-Lys[(2-{2-[16-(tetrazol-5-yl)hexadecanoylamino]ethoxy}ethoxy)acetyl]-NH2 (peptide)
peptide: Ac-[Dab]H[dF]RWDPPHEK(biscarboxymethyl(3))K([AEEA-Palmitoyl(16-(5-tetrazolyl))])-NH2
modifications: lactam 1-6
B14: Ac-c[Orn-His-D-Phe-Arg-Trp-Asp]-Pro-Pro-His-Glu-Lys(biscarboxymethyl)-Lys[(2-{2-[16-(tetrazol-5-yl)hexadecanoylamino]ethoxy}ethoxy)acetyl]-NH2 (peptide)
peptide: Ac-[Orn]H[dF]RWDPPHEK(biscarboxymethyl)K(X2)-NH2
modifications: lactam 1-6
B15: Ac-c[Orn-His-D-Phe-Arg-Trp-Glu]-Pro-Pro-His-Glu-Lys(biscarboxymethyl)-Lys({2-[2-(16-carboxyhexadecanoylamino)ethoxy]ethoxy}acetyl)-NH2 (peptide)
peptide: Ac-[Orn]H[dF]RWEPPHEK(bis(carboxymethyl))K([AEEA-C17 diacid])-NH2
modifications: lactam 1-6

What follows are binders tested against T1, human MC4 receptor (human, UniProt P32245 1-332) (assay: 125I-NDP-α-MSH displacement, BHK-human MC4 membranes (Assay V);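 note: Filter-retained radioactivity read by gamma counting, with affinity obtained through non-linear regression fitting of the binding curves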).
T1 construct: whole, on cells; Assayed as membranes of BHK cells stably expressing the receptor; also called melanocortin receptor subtype 4; melanocortin receptor 4
T1 sequence (P32245 whole entry): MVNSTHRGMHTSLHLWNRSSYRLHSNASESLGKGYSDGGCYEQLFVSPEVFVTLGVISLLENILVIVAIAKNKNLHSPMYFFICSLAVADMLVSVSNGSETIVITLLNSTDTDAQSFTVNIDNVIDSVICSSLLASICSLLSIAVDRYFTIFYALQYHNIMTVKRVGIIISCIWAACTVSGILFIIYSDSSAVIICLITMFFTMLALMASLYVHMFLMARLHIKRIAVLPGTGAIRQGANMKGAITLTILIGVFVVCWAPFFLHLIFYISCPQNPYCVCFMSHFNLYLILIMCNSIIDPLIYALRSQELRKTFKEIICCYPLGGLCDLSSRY

Compared with B1, B2 is 1.7-fold lower in Ki: 1.06 nM for the first, 0.62 nM for the second.

Compared with B3, B4 is 5.5-fold lower in Ki: 15 nM for the first, 2.75 nM for the second.

Going from B5 to B6, the Ki falls from 30 nM to 6.35 nM (4.7-fold). The second binds more tightly here.

Going from B7 to B8, the Ki rises from 17 nM to 70 nM (4.1-fold). The first binds more tightly here.

Compared with B9, B10 is 140-fold higher in Ki: 0.4 nM for the first, 55 nM for the second. The first binds more tightly here.

Going from B11 to B12, the Ki rises from 8.45 nM to 107 nM (13-fold).

First: B13
Second: B14
The Ki of the first is 53-fold higher: 76 nM for the first, 1.43 nM for the second.

For B15, the Ki was 21.5 nM.
